Here are results for one molecule from patent publication US20240092891A1.

In this experiment the target is human CLDN18.1 (human) (UniProt P56856). The experiment can be described thus: flow cytometry on human CLDN18.1-HEK293 cells, antibody at 100 µg/mL. In general terms: In flow cytometry, cells or beads pass a laser one at a time.
Sequence of human CLDN18.1 (human) (P56856 whole entry): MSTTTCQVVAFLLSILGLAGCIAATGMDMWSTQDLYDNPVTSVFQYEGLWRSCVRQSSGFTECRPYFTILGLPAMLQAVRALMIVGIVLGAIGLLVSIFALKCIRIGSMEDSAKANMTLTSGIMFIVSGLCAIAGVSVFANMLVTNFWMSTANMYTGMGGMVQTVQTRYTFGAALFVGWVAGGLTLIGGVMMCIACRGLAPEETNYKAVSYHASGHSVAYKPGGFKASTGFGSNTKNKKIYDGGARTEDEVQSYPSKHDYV

B1: humanized antibody NA7-S-H2 (Fc fusion, not shown: a dimerising Fc or GST)
chain: EVQLVESGGGLVQPGGSLRLSCAASGSFFRIVAMGWYRQAPGKGRELVATITRGGSTYYADSMKGRSTISRDNAKNTVYLQMNSLKPEDTAVYYCNVRVEVPFMQPNDYWGQGTLVTVSS
Consider B1, for which the positive rate of cell binding stood at 5.5%.
